Measured values published in patent US20060073152A1 (Genentech, published 2006).
No end group written: not given here.

B1: HB-H18 (peptide)
peptide: RTAESLVCYWPGICFAQSER
modifications: not fully specified (bridges); cysteine pairing not given here; also: phage-displayed
notes: on phage
B2: HC-H16 (peptide)
peptide: EVCYFPGICWE
modifications: not fully specified (bridges); cysteine pairing not given here; also: phage-displayed
notes: on phage
B3: HC-H11 (peptide)
peptide: EVCYFPGICWF
modifications: not fully specified (bridges); cysteine pairing not given here; also: phage-displayed
notes: on phage
B4: HB-H13 (peptide)
peptide: ELCYFPGICWT
modifications: not fully specified (bridges); cysteine pairing not given here; also: phage-displayed
notes: on phage
B5: HBC-H15 (peptide)
peptide: KTEICYFPGICWMSG
modifications: not fully specified (bridges); cysteine pairing not given here; also: phage-displayed
notes: on phage
B6: HBC-H18 (peptide)
peptide: RDTVCYFPGICWMAS
modifications: not fully specified (bridges); cysteine pairing not given here; also: phage-displayed
notes: on phage
B7: HC-H2 (peptide)
peptide: KLCYFPGICWS
modifications: not fully specified (bridges); cysteine pairing not given here; also: phage-displayed
notes: on phage
B8: HB-H16 (peptide)
peptide: RMPASLPCYWETICYESSEQ
modifications: not fully specified (bridges); cysteine pairing not given here; also: phage-displayed
notes: on phage
B9: HBC-H17 (peptide)
peptide: HAEICYFPGICWTER
modifications: not fully specified (bridges); cysteine pairing not given here; also: phage-displayed
notes: on phage
B10: HBC-H4 (peptide)
peptide: GGEICYFPGICRVLP
modifications: not fully specified (bridges); cysteine pairing not given here; also: phage-displayed
notes: on phage
B11: HBC-H3 (peptide)
peptide: GTEVCYFPGICWGGG
modifications: not fully specified (bridges); cysteine pairing not given here; also: phage-displayed
notes: on phage

target: T1, human serum albumin (human, UniProt P02768 25-609); experiment: phage binding
T1 construct: also called Human SA; HuSA

| Binder | binding result |
| --- | --- |
| B1 | binds |
| ASEICYFPGICWMVE (on phage) [HBC-H12] | binds |
| MEPSRSVCYAEGICFDRGEQ (on phage) [HB-H8] | binds |
| ELCYFPGICWM (on phage) [HC-H20] | binds |
| B2 | binds |
| ALCYFPGICWM (on phage) [HC-H14] | binds |
| ELCYFPGICWP (on phage) [HC-H15] | binds |
| EICYFPGICWI (on phage) [HB-H12] | binds |
| DVCYFPGICWM (on phage) [HC-H8] | binds |
| EICYFPGICWM (on phage) [HC-H17] | binds |
| EMCYFPGICWT (on phage) [HC-H9] | binds |
| EVCYFPGICWM (on phage) [HC-H19] | binds |
| B3 | binds |
| EMCYFPGICWS (on phage) [HC-H7] | binds |
| DLCYFPGICWM (on phage) [HC-H3] | binds |
| B4 | binds |
| B5 | binds |
| RAAESSVCYWPGICFDRTEQ (on phage) [HB-H2] | binds |
| LAEMCYFPGICWMSA (on phage) [HBC-H7] | binds |
| QTRSFCADWPRHESCKPLRG (on phage) [HA-H76] | binds |
| DSEVCYFPGICWSGT (on phage) [HBC-H1] | binds |
| NDEICYFPGVCWKSG (on phage) [HBC-H11] | binds |
| GMCYFPGICWA (on phage) [HC-H4] | binds |
| B6 | binds |

| Binder | binding result |
| --- | --- |
| TTEMCYFPGICWKTE (on phage) [HBC-H14] | binds |
| B7 | binds |
| EHDMCYFPGICWIAD (on phage) [HBC-H6] | binds |
| KTCYFPGICWM (on phage) [HC-H10] | binds |
| B8 | binds |
| VRDMCYFPGICWKSE (on phage) [HBC-H19] | binds |
| QTELCYFPGICWNES (on phage) [HBC-H13] | binds |
| VQEVCYFPGICWMQE (on phage) [HBC-H10] | binds |
| B9 | binds |
| EVRSFCTDWPAHYSCTSLQG (on phage) [HA-H74] | binds |
| DMCYFPGICFN (on phage) [HC-H18] | binds |
| SREVCYYPGICWNGA (on phage) [HBC-H2] | binds |
| B10 | binds |
| SYAPCYFPGICWMGN (on phage) [HBC-H8] | binds |
| SGAICYVPGICWTHA (on phage) [HB-H7] | binds |
| B11 | binds |
| LVPERIVCYFESICYERSEL (on phage) [HB-H4] | binds |
| IVEMCYYPGICWISP (on phage) [HB-H10] | binds |
| REPASLVCYFEDICFVRAEA (on phage) [HB-H3] | binds |
| DICYIPGICWM (on phage) [HC-H6] | binds |
| ETCYFPGICWL (on phage) [HC-H12] | binds |
| GVRTFCQDWPAHNSCKLLRG (on phage) [HA-H73] | binds |
| DMCYFPGICWL (on phage) [HC-H13] | binds |

target: T2, rat serum albumin (rat, UniProt P02770 25-608); experiment: phage binding
T2 construct: also called Rat SA; RSA
T2 sequence (P02770 25-608 limits assumed): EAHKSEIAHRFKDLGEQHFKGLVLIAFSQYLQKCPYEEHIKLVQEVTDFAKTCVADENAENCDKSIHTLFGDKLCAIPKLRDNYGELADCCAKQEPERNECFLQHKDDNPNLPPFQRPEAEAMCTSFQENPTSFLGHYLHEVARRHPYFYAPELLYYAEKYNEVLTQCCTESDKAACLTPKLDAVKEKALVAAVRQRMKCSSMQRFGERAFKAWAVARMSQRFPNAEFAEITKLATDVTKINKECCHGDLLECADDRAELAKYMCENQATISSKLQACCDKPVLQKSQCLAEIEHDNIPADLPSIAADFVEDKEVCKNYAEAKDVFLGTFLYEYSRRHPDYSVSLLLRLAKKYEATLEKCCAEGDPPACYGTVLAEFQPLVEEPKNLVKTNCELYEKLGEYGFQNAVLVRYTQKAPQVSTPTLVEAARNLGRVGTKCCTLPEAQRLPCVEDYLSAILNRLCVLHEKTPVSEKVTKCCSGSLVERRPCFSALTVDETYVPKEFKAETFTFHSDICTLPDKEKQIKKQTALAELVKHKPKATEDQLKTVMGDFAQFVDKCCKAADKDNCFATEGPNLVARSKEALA

| Binder | binding result |
| --- | --- |
| QGYMVDFCLPRWGCLWGDAN (not fully specified (bridges); cysteine pairing not given here, on phage) [RB-R12] | binds |
| QRHMMDFCLPKWGCLWGDGY (not fully specified (bridges); cysteine pairing not given here, on phage) [RB-R4] | binds |
| QRPIMDFCLPKWGCLWEDGF (on phage) [RB-R7] | binds |
| QGGMGDFCLPQWGCLWGEDL (on phage) [RB-R17] | binds |
| WDDICFRDWGCLWGS (on phage) [RBC-R7] | binds |
| KMGRVDFCLPKWGCLWGDEL (not fully specified (bridges); cysteine pairing not given here, on phage) [RB-R13] | binds |
| DICLPRWGCLW (on phage) [RC-R13] | binds |
| DICLPVWGCLW (on phage; also called RC-R2; RC-R3) [RC-R1] | binds |
| EWDVCLPHWGCLWDG (on phage) [RBC-R16] | binds |
| ERQMVDFCLPKWGCLWGDGF (on phage) [RB-R11] | binds |
| QSQLEDFCLPKWGCLWGDGF (not fully specified (bridges); cysteine pairing not given here, on phage) [RB-R15] | binds |
